From patent US20210300999A1 come the findings set out here.

In general, EC50 refers to the concentration needed to bring the measured effect to its halfway point. Lower therefore signals an effect from little substance. A word on the IC50: it is the midpoint of a concentration-inhibition curve.

Settings in all cases: remark: other sources report otherwise
The target in test [1] is SARS-CoV-2 Spike trimer (Table A) (SARS-CoV-2), P0DTC2. Put plainly: ELISA, purified IgG. (In general: An ELISA detects its analyte on a solid surface through an enzyme-linked reagent.)
The target of test [2] is T1, SARS-CoV-2 prefusion-stabilized trimeric spike ectodomain (S2Pecto) (SARS-CoV-2), P0DTC2. Put plainly: ELISA on coated antigen.
Test [3] has as its target T1, SARS-CoV-2 prefusion-stabilized …. Description: hACE2 blocking ELISA on coated S2Pecto; competitor hACE2.

B1: COV2-2165 (antibody, V domains shown)
VH: EVQLVESGGGLVQPGGSLRLSCAASGLTVRSNYMTWVRQTPGKGLEWVSVIYSGGSTFYADSVKGRFTISRDNSKNTVYLQMNSLRAEDTAVYYCARDLVTYGLDVWGQGTTVTVSS
VL: DIQLTQSPSFLSASVGDRVTITCRASQGISNYLAWYQQKPGTAPNLLIYAASTLQSGVPSRFSGSGSGTEFTLTISSLQPEDFATYYCQLLNSHPLTFGQGTRLEIK
On to B1, for which the ELISA OD 450 nm in test [1] was 4.2 OD 450 nm. The EC50 in test [2] was determined as 0.0014 mg/L. For the same molecule, the IC50 in test [3] was determined as 0.062 mg/L.

B2: COV2-2952 (antibody, V domains shown)
VH: B1 VH
VL: B1 VL
As for B2, in test [1], the ELISA OD 450 nm was 3.54 OD 450 nm.

B3: COV2-2391 (antibody, V domains shown)
VH: QVQLVQSGAEVKKPGASVKVSCKASGYTFGSFDINWVRQATGQGLEWMGRMNSNSGNTAYAQKFQGRVTMTRDTSTNTAYMELSSLRSEDTAMYYCARMRSGWPTHGRPDDFWGRGTLVTVSS
VL: QSVLTQAPSASGTPGQRVTISCSGSNSNIGSYTINWYQQLPGTAPKLLIYGNDQRTSGVPDRFSGSKFGTSASLAISGLQSEDENNYYCAVWDDSLNGLVFGGGTKLTVL
Consider B3, for which the ELISA OD 450 nm in test [1] turned out to be 3.57 OD 450 nm.

B4: COV2-2096 (antibody, V domains shown)
VH: B3 VH
VL: B3 VL
As for B4, the ELISA OD 450 nm in test [1] is 4.3 OD 450 nm. Also, the EC50 in test [2] turned out to be 0.001 mg/L. This molecule also had an IC50 in test [3] of 0.067 mg/L.
